B1: Ceramide transfer protein (Homo sapiens), Q9Y5P4-2 (parent)
chain: MSDNQSWNSSGSEEDPETESGPPVERCGVLSKWTNYIHGWQDRWVVLKNNALSYYKSEDETEYGCRGSICLSKAVITPHDFDECRFDISVNDSVWYLRAQDPDHRQQWIDAIEQHKTESGYGSESSLRRHGSMVSLVSGASGYSATSTSSFKKGHSLREKLAEMETFRDILCRQVDTLQKYFDACADAVSKDELQRDKVVEDDEDDFPTTRSDGDFLHSTNGNKEKLFPHVTPKGINGIDFKGEAITFKATTAGILATLSHCIELMVKREDSWQKRLDKETEKKRRTEEAYKNAMTELKKKSHFGGPDYEEGPNSLINEEEFFDAVEAALDRQDKIEEQSQSEKVRLHWPTSLPSGDAFSSVGTHRFVQKVEEMVQNHMTYSLQDVGGDANWQLVVEEGEMKVYRREVEENGIVLDPLKATHAVKGVTGHEVCNYFWNVDVRNDWETTIENFHVVETLADNAIIIYQTHKRVWPASQRDVLYLSVIRKIPALTENDPETWIVCNFSVDHDSAPLNNRCVRAKINVAMICQTLVSPPEGNQEISRDNILCKITYVANVNPGGWAPASVLRAVAKREYPKFLKRFTSYVQEKTAGKPILF

Variants of: B1
Settings: with samp_human APCS

Variant | effect of a mutation on the interaction
MSDNQSWNSSGSEEDPETESGPPVERCGVLSKWTNYIHGWQDRWVVLKNNALSYYKSEDETEYGCRGSICLSKAVITPHDFDECRFDISVNDSVWYLRAQDPDHRQQWIDAIEQHKTESGYGSESSLRRHGSMVSLVSGASGYSATSTSSFKKGHSLREKLAEMETFRDILCRQVDTLQKYFDACADAVSKDELQRDKVVEDDEDDFPTTRSDGDFLHSTNGNKEKLFPHVTPKGINGIDFKGEAITFKATTAGILATLSHCIELMVKREDSWQKRLDKETEKKRRTEEAYKNAMTELKKKSHFGGPDYEEGPNSLINEEEFFDAVEAALDRQDKIEEQSQSEKVRLHWPTSLPSGDAFSSVGTHRFVQKVEEMVQNHMTYSLQDVGGDANWQLVVEEGEMKVYRREVEENGIVLDPLKATHAVKGVTGHEVCAAFWNVDVRNDWETTIENFHVVETLADNAIIIYQTHKRVWPASQRDVLYLSVIRKIPALTENDPETWIVCNFSVDHDSAPLNNRCVRAKINVAMICQTLVSPPEGNQEISRDNILCKITYVANVNPGGWAPASVLRAVAKREYPKFLKRFTSYVQEKTAGKPILF [N434A;Y435A] | with no effect
MSDNQSWNSSGSEEDPETESGPPVERCGVLSKWTNYIHGWQDRWVVLKNNALSYYKSEDETEYGCRGSICLSKAVITPHDFDECRFDISVNDSVWYLRAQDPDHRQQWIDAIEQHKTESGYGSESSLRRHGSMVSLVSGASGYSATSTSSFKKGHSLREKLAEMETFRDILCRQVDTLQKYFDACADAVSKDELQRDKVVEDDEDDFPTTRSDGDFLHSTNGNKEKLFPHVTPKGINGIDFKGEAITFKATTAGILATLSHCIELMVKREDSWQKRLDKETEKKRRTEEAYKNAMTELKKKSHFGGPDYEEGPNSLINEEEFFDAVEAALDRQDKIEEQSQSEKVRLHWPTSLPSGDAFSSVGTHRFVQKVEEMVQNHMTYSLQDVGGDANWQLVVEEGEMKVYRREVEENGIVLDPLKATHAVKGVTGHEVCNYFWNVDVRNDWETTIENFHVVETLADNAIIIYQTHKRVWGQSQRDVLYLSVIRKIPALTENDPETWIVCNFSVDHDSAPLNNRCVRAKINVAMICQTLVSPPEGNQEISRDNILCKITYVANVNPGGWAPASVLRAVAKREYPKFLKRFTSYVQEKTAGKPILF [P474G;A475Q] | disrupting interaction strength
MSDNQSWNSSGSEEDPETESGPPVERCGVLSKWTNYIHGWQDRWVVLKNNALSYYKSEDETEYGCRGSICLSKAVITPHDFDECRFDISVNDSVWYLRAQDPDHRQQWIDAIEQHKTESGYGSESSLRRHGSMVSLVSGASGYSATSTSSFKKGHSLREKLAEMETFRDILCRQVDTLQKYFDACADAVSKDELQRDKVVEDDEDDFPTTRSDGDFLHSTNGNKEKLFPHVTPKGINGIDFKGEAITFKATTAGILATLSHCIELMVKREDSWQKRLDKETEKKRRTEEAYKNAMTELKKKSHFGGPDYEEGPNSLINEEEFFDAVEAALDRQDKIEEQSQSEKVRLHWPTSLPSGDAFSSVGTHRFVQKVEEMVQNHMTYSLQDVGGDANWQLVVEEGEMKVYRREVEENGIVLDPLKATHAVKGVTGHEVCNAAWNVDVRNDWETTIENFHVVETLADNAIIIYQTHKRVWPASQRDVLYLSVIRKIPALTENDPETWIVCNFSVDHDSAPLNNRCVRAKINVAMICQTLVSPPEGNQEISRDNILCKITYVANVNPGGWAPASVLRAVAKREYPKFLKRFTSYVQEKTAGKPILF [Y435A;F436A] | decreasing interaction strength

Further lines, results first:

effect of a mutation on the interaction | Variant
with no effect | MSDNQSWNSSGSEEDPETESGPPVERCGVLSKWTNYIHGWQDRWVVLKNNALSYYKSEDETEYGCRGSICLSKAVITPHDFDECRFDISVNDSVWYLRAQDPDHRQQWIDAIEQHKTESGYGSESSLRRHGSMVSLVSGASGYSATSTSSFKKGHSLREKLAEMETFRDILCRQVDTLQKYFDACADAVSKDELQRDKVVEDDEDDFPTTRSDGDFLHSTNGNKEKLFPHVTPKGINGIDFKGEAITFKATTAGILATLSHCIELMVKREDSWQKRLDKETEKKRRTEEAYKNAMTELKKKSHFGGPDYEEGPNSLINEEEFFDAVEAALDRQDKIEEQSQSEKVRLHWPTSLPSGDAFSSVGTHRFVQKVEEMVQNHMTYSLQDVGGDANWQLVVEEGEMKVYRREVEENGIVLDPLKATHAVKGVTGHEVCNYFWNVDVRNDWETTIENFHVVETLADNAIIIYQTHKRAAPASQRDVLYLSVIRKIPALTENDPETWIVCNFSVDHDSAPLNNRCVRAKINVAMICQTLVSPPEGNQEISRDNILCKITYVANVNPGGWAPASVLRAVAKREYPKFLKRFTSYVQEKTAGKPILF [V472A;W473A]
decreasing interaction strength | MSDNQSWNSSGSEEDPETESGPPVERCGVLSKWTNYIHGWQDRWVVLKNNALSYYKSEDETEYGCRGSICLSKAVITPHDFDECRFDISVNDSVWYLRAQDPDHRQQWIDAIEQHKTESGYGSESSLRRHGSMVSLVSGASGYSATSTSSFKKGHSLREKLAEMETFRDILCRQVDTLQKYFDACADAVSKDELQRDKVVEDDEDDFPTTRSDGDFLHSTNGNKEKLFPHVTPKGINGIDFKGEAITFKATTAGILATLSHCIELMVKREDSWQKRLDKETEKKRRTEEAYKNAMTELKKKSHFGGPDYEEGPNSLINEEEFFDAVEAALDRQDKIEEQSQSEKVRLHWPTSLPSGDAFSSVGTHRFVQKVEEMVQNHMTYSLQDVGGDANWQLVVEEGEMKVYRREVEENGAVLDPLKATHAVKGVTGHEVCNYFWNVDVRNDWETTIENFHVVETLADNAIIIYQTHKRVWPASQRDVLYLSVIRKIPALTENDPETWIVCNFSVDHDSAPLNNRCVRAKINVAMICQTLVSPPEGNQEISRDNILCKITYVANVNPGGAAPASVLRAVAKREYPKFLKRFTSYVQEKTAGKPILF [I413A;W562A]

Variants of: B1
Settings: with samp_human APCS
Remark: another data set of the same source

effect of a mutation on the interaction | Variant
decreasing interaction strength | MSDNQSWNSSGSEEDPETESGPPVERCGVLSKWTNYIHGWQDRWVVLKNNALSYYKSEDETEYGCRGSICLSKAVITPHDFDECRFDISVNDSVWYLRAQDPDHRQQWIDAIEQHKTESGYGSESSLRRHGSMVSLVSGASGYSATSTSSFKKGHSLREKLAEMETFRDILCRQVDTLQKYFDACADAVSKDELQRDKVVEDDEDDFPTTRSDGDFLHSTNGNKEKLFPHVTPKGINGIDFKGEAITFKATTAGILATLSHCIELMVKREDSWQKRLDKETEKKRRTEEAYKNAMTELKKKSHFGGPDYEEGPNSLINEEEFFDAVEAALDRQDKIEEQSQSEKVRLHWPTSLPSGDAFSSVGTHRFVQKVEEMVQNHMTYSLQDVGGDANWQLVVEEGEMKVYRREVEENGIVLDPLKATHAVKGVTGHEVCAAFWNVDVRNDWETTIENFHVVETLADNAIIIYQTHKRVWPASQRDVLYLSVIRKIPALTENDPETWIVCNFSVDHDSAPLNNRCVRAKINVAMICQTLVSPPEGNQEISRDNILCKITYVANVNPGGWAPASVLRAVAKREYPKFLKRFTSYVQEKTAGKPILF [N434A;Y435A]

Reference: IntAct's records for PubMed 22396542
